This assay concerns the target RGD-recognizing receptors (on monocytes). Nature of the assay: cell-based or functional assay.

The record followed here is patent publication US20170128490A1.

B1: small RGD peptides, containing the amino-acid sequence Arg-Gly-Asp-Ser (peptide)
peptide: RGDS
Turning to B1, the long-duration monocyte-platelet interactions (video analysis, flow) turned out to be 44 % decrease.
